In PMC12069552, “Root stem cell homeostasis in Arabidopsis involves cell-type specific transcription factor complexes” (EMBO Reports, 2025):

Columns and labels:
[1] = target: WOX5-mV(N) PLT3-mV(C) heterodimer (BiFC donor) (Arabidopsis thaliana) (UniProt Q8H1D2); experiment: split reporter (BiFC, NanoBiT) + FRET or BRET; BiFC-FRET-FLIM in nuclei of N. benthamiana epidermal leaf cells; mVenus donor split into mV(N) and mV(C) on two proteins, third protein with mCherry as acceptor; 'binding' [%]; binding cutoff 10%
[2] = target: BRAVO-mVenus (BRASSINOSTEROIDS AT VASCULAR AND ORGANIZING CENTRE) (Arabidopsis thaliana) (UniProt Q6R053); experiment: FRET or BRET; FRET-FLIM in nuclei of transiently expressing N. benthamiana epidermal leaf cells; mVenus fusion as donor, mCherry fusion as acceptor; 'binding' [%] is the amplitude of the FRET component (number of donor molecules undergoing FRET); binding cutoff 10%; a binding not significantly different from the negative control (mCherry-NLS) is regarded as no interaction
[3] = target: T1, WOX5-mV(N) PLT3-mV(C) heterodimer (BiFC donor) (Arabidopsis thaliana, UniProt Q8H1D2 1-182; Q52QU2 1-581); experiment: split reporter (BiFC, NanoBiT) + FRET or BRET; BiFC-FRET-FLIM in nuclei of N. benthamiana epidermal leaf cells; mVenus donor split into mV(N) and mV(C) on two proteins, third protein with mCherry as acceptor; 'binding' [%]; binding cutoff 10%; conditions: partners not purified
T1 construct: WUSCHEL-RELATED HOMEOBOX 5 (WOX5) of Arabidopsis thaliana; the CDS, described in Burkart et al, 2022; PLETHORA 3 (PLT3) of Arabidopsis thaliana; The two halves of mVenus are reconstituted in the heterodimer, which serves as FRET donor; also called heterodimer of WOX5 and PLT3; source: N. benthamiana abaxial epidermal leaf cells, transiently co-expressed, in cells
T1 sequence (looked up) 1: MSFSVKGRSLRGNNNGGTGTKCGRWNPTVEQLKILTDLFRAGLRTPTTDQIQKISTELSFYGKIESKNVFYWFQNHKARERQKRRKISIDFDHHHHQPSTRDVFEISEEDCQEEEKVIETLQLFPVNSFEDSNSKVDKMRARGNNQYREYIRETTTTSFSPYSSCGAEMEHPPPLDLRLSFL
T1 sequence (looked up) 2: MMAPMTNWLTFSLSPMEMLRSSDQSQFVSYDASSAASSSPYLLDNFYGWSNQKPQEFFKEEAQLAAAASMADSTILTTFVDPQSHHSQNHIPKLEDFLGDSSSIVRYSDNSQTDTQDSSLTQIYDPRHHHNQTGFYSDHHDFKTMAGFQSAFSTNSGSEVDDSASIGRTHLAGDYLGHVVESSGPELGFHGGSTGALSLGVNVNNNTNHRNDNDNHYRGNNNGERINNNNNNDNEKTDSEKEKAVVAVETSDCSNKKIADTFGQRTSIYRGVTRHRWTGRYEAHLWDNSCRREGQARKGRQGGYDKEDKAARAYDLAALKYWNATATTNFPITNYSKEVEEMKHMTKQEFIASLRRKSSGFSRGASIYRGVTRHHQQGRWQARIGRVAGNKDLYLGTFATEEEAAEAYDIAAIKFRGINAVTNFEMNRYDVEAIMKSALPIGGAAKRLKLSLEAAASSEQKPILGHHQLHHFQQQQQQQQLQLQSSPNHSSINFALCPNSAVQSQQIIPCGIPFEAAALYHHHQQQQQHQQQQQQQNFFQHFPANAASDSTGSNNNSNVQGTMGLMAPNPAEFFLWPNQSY

[4] = target: T2, BRAVO-mV(N) PLT3-mV(C) heterodimer (BiFC donor) (Arabidopsis thaliana, UniProt Q6R053 1-323; Q52QU2 1-581); experiment: as above; conditions: partners not purified
T2 construct: BRAVO, R2R3-MYB transcription factor of Arabidopsis thaliana; the CDS amplified from cDNA; PLETHORA 3 (PLT3) of Arabidopsis thaliana; the CDS, described in Burkart et al, 2022; The two halves of mVenus are reconstituted in the heterodimer, which serves as FRET donor; source: N. benthamiana abaxial epidermal leaf cells, transiently co-expressed, in cells
T2 sequence (looked up) 1: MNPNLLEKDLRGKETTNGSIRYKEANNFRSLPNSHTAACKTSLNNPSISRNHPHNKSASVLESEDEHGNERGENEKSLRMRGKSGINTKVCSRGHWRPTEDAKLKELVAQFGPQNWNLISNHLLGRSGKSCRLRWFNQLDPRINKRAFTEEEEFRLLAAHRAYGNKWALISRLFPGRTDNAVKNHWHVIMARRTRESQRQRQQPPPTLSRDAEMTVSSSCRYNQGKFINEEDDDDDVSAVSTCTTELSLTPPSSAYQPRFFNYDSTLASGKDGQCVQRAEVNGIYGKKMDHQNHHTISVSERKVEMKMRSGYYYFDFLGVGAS
T2 sequence (looked up) 2: T1 sequence (looked up) 2

[5] = target: T3, BRAVO-mVenus (BRASSINOSTEROIDS AT VASCULAR AND ORGANIZING CENTRE) (Arabidopsis thaliana, UniProt Q6R053 1-323); experiment: FRET or BRET; FRET-FLIM in nuclei of transiently expressing N. benthamiana epidermal leaf cells; mVenus fusion as donor, mCherry fusion as acceptor; 'binding' [%] is the amplitude of the FRET component (number of donor molecules undergoing FRET); binding cutoff 10%; a binding not significantly different from the negative control (mCherry-NLS) is regarded as no interaction; conditions: partners not purified
T3 construct: BRAVO, R2R3-MYB transcription factor of Arabidopsis thaliana; the CDS amplified from cDNA; FRET donor; source: N. benthamiana abaxial epidermal leaf cells, transiently expressed (β-estradiol inducible promoter), in cells
T3 sequence (looked up): T2 sequence (looked up) 1

BES1D-mCherry (BRI1-EMS-SUPPRESSOR 1, BES1D form) (from UniProt Q9LN63 1-335) (natural protein)
binding (FRET-FLIM, share of donor molecules undergoing FRET) [1]: 18.7%
binding (FRET-FLIM, share of donor molecules undergoing FRET) [2]: 27.4%

B1: TPL-mCherry (TOPLESS) (natural protein, Arabidopsis thaliana, UniProt Q94AI7 1-1131, looked up)
chain: MSSLSRELVFLILQFLDEEKFKETVHKLEQESGFFFNMKYFEDEVHNGNWDEVEKYLSGFTKVDDNRYSMKIFFEIRKQKYLEALDKHDRPKAVDILVKDLKVFSTFNEELFKEITQLLTLENFRENEQLSKYGDTKSARAIMLVELKKLIEANPLFRDKLQFPTLRNSRLRTLINQSLNWQHQLCKNPRPNPDIKTLFVDHSCGPPNGARAPSPVNNPLLGGIPKAGGFPPLGAHGPFQPTASPVPTPLAGWMSSPSSVPHPAVSAGAIALGGPSIPAALKHPRTPPTNASLDYPSADSEHVSKRTRPMGISDEVNLGVNMLPMSFSGQAHGHSPAFKAPDDLPKTVARTLSQGSSPMSMDFHPIKQTLLLVGTNVGDIGLWEVGSRERLVQKTFKVWDLSKCSMPLQAALVKEPVVSVNRVIWSPDGSLFGVAYSRHIVQLYSYHGGEDMRQHLEIDAHVGGVNDISFSTPNKQLCVITCGDDKTIKVWDAATGVKRHTFEGHEAPVYSVCPHYKENIQFIFSTALDGKIKAWLYDNMGSRVDYDAPGRWCTTMAYSADGTRLFSCGTSKDGESFIVEWNESEGAVKRTYQGFHKRSLGVVQFDTTKNRYLAAGDDFSIKFWDMDAVQLLTAIDGDGGLQASPRIRFNKEGSLLAVSGNENVIKIMANSDGLRLLHTFENISSESSKPAINSIAAAAAAAATSAGHADRSANVVSIQGMNGDSRNMVDVKPVITEESNDKSKIWKLTEVSEPSQCRSLRLPENLRVAKISRLIFTNSGNAILALASNAIHLLWKWQRNERNATGKATASLPPQQWQPASGILMTNDVAETNPEEAVPCFALSKNDSYVMSASGGKISLFNMMTFKTMATFMPPPPAATFLAFHPQDNNIIAIGMDDSTIQIYNVRVDEVKSKLKGHSKRITGLAFSNVLNVLVSSGADAQLCVWNTDGWEKQRSKVLPLPQGRPNSAPSDTRVQFHQDQAHFLVVHETQLAIYETTKLECMKQWAVRESLAPITHATFSCDSQLVYASFMDATVCVFSSANLRLRCRVNPSAYLPASLSNSNVHPLVIAAHPQEPNMFAVGLSDGGVHIFEPLESEGKWGVAPPAENGSASGAPTAPSVGASASDQPQR
notes: TOPLESS (TPL) of Arabidopsis thaliana; the CDS amplified from cDNA; FRET acceptor; source: N. benthamiana abaxial epidermal leaf cells, transiently expressed (β-estradiol inducible), in cells
binding (FRET-FLIM, share of donor molecules undergoing FRET) [3]: 23.3 ± 8.3%
binding (FRET-FLIM, share of donor molecules undergoing FRET) [4]: 21.1 ± 8.3%
binding (FRET-FLIM, share of donor molecules undergoing FRET) [5]: 26.7 ± 9.8%

B2: BRAVO-mCherry (natural protein, Arabidopsis thaliana, UniProt Q6R053 1-323, looked up)
chain: T2 sequence (looked up) 1
notes: BRAVO, R2R3-MYB transcription factor of Arabidopsis thaliana; the CDS amplified from cDNA; FRET acceptor; source: N. benthamiana abaxial epidermal leaf cells, transiently expressed (β-estradiol inducible), in cells
binding (FRET-FLIM, share of donor molecules undergoing FRET) [3]: 36.3 ± 10.7%

B3: WOX5-mCherry (WUSCHEL-RELATED HOMEOBOX 5) (natural protein, Arabidopsis thaliana, UniProt Q8H1D2 1-182, looked up)
chain: T1 sequence (looked up) 1
notes: WUSCHEL-RELATED HOMEOBOX 5 (WOX5), homeodomain transcription factor of Arabidopsis thaliana; the CDS, described in Burkart et al, 2022; FRET acceptor; construct XVE:WOX5-mCherry of Burkart et al, 2022; source: N. benthamiana abaxial epidermal leaf cells, transiently expressed (β-estradiol inducible), in cells
binding (FRET-FLIM, share of donor molecules undergoing FRET) [4]: 29.8 ± 10.6%
binding (FRET-FLIM, share of donor molecules undergoing FRET) [5]: 22.4 ± 14.1%
